Earlier results as cited in PMC4692369.

Target: Tyr57 (UniProt position 57, QIAAFYRQGLG)
Experiment: UV-vis
Details: apo enzyme

For “Ketosteroid isomerase D40N (earlier construct without LVPR) (Pseudomonas putida; D40N)”, the pKa is listed as 6.3.
